Reference: patent US20200085917A1

Legend:
Assay in all cases: GST pull-down, LC-MS/MS
[1] = target: Nubpl_IPI:IPI00317709.1 (mouse) (UniProt Q9CWD8)
[2] = target: Rab5b_IPI:IPI00116563.2 (mouse) (UniProt P61021)
[3] = target: Stoml2_IPI:IPI00115117.1 (mouse) (UniProt Q99JB2)
[4] = target: Nup210l_IPI:IPI00356451.5 (mouse) (UniProt Q9D2F7)
[5] = target: Mtx1_IPI:IPI00112327.1 (mouse) (UniProt P47802)
[6] = target: LOC100044454_IPI:IPI00135284.1 (mouse)
[7] = target: Ppdpf_IPI:IPI00133078.1 (mouse) (UniProt Q9CR37)
Chain of Ppdpf_IPI:IPI00133078.1 (mouse) (Q9CR37 whole entry): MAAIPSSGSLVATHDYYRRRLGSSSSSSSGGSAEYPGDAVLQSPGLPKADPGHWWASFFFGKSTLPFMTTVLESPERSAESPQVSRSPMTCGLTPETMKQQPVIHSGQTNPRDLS

[8] = target: Lyrm4_IPI:IPI00169804.1 (mouse) (UniProt Q8K215)
[9] = target: Hint2_IPI:IPI00133034.3 (mouse) (UniProt Q9D0S9)
Chain of Hint2_IPI:IPI00133034.3 (mouse) (Q9D0S9 18-163 limits assumed): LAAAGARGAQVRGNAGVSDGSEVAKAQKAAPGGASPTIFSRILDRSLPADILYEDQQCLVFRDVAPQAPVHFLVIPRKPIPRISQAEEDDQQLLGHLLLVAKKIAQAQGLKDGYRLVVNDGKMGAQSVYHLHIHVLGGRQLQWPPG

[10] = target: Fabp5_IPI:IPI00114162.3 (mouse) (UniProt Q05816)
[11] = target: Mtch1_IPI:IPI00137173.1 (mouse) (UniProt Q791T5)
[12] = target: Cisd3_IPI:IPI00345740.4 (mouse) (UniProt B1AR13)
[13] = target: 5730469M10Rik_IPI:IPI00187272.3 (mouse)
Chain of 5730469M10Rik_IPI:IPI00187272.3 (mouse) (Q9CYH2 whole entry): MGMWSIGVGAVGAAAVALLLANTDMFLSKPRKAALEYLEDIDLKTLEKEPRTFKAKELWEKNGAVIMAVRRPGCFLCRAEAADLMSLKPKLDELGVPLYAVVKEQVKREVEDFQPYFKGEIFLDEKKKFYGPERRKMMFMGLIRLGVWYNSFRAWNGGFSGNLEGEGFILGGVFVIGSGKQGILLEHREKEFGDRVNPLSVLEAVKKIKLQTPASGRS

[14] = target: Pnkd_IPI:IPI00187405.4 (mouse) (UniProt Q69ZP3)
[15] = target: Dnaja3_IPI:IPI00120414.1 (mouse) (UniProt Q99M87)
[16] = target: Acad8_IPI:IPI00274222.2 (mouse) (UniProt Q9D7B6)
[17] = target: Slc6a11_IPI:IPI00136867.1 (mouse) (UniProt P31650)
Chain of Slc6a11_IPI:IPI00136867.1 (mouse) (P31650 whole entry): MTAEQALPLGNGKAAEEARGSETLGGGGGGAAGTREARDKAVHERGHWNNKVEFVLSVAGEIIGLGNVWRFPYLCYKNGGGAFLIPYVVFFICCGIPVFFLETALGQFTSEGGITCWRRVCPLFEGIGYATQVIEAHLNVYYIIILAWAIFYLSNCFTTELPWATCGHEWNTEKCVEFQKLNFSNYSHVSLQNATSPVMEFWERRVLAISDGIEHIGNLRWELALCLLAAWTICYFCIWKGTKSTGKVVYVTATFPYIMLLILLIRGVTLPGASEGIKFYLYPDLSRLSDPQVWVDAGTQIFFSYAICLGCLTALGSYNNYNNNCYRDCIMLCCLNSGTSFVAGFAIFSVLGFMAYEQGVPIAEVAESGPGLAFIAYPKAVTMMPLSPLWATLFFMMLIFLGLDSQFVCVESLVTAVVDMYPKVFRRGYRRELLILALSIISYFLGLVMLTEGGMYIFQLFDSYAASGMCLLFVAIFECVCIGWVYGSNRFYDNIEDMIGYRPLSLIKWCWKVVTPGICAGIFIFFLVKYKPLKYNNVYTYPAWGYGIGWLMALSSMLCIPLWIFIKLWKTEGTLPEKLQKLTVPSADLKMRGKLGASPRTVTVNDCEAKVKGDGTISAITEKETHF

[18] = target: Acadsb_IPI:IPI00119842.1 (mouse) (UniProt Q9DBL1)
[19] = target: Mthfd1l_IPI:IPI00228113.5 (mouse) (UniProt Q3V3R1)
[20] = target: Rdh14_IPI:IPI00112377.1 (mouse) (UniProt Q9ERI6)
Chain of Rdh14_IPI:IPI00112377.1 (mouse) (Q9ERI6 whole entry): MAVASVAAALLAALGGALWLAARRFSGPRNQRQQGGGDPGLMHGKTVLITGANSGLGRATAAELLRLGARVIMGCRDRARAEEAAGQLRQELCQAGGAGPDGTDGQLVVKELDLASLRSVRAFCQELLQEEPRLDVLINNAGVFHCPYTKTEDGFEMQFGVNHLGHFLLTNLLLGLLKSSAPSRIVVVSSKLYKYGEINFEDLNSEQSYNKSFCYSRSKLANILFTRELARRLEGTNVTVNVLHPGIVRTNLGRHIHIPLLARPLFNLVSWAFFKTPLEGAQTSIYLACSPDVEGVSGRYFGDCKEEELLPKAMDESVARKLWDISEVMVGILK

[21] = target: Ndufa11_IPI:IPI00318645.6 (mouse) (UniProt Q9D8B4)
[22] = target: Agk_IPI:IPI00113606.2 (mouse) (UniProt Q9ESW4)
[23] = target: Hsd17b10_IPI:IPI00320847.1 (mouse) (UniProt O08756)
[24] = target: Tpi1_IPI:IPI00467833.6 (mouse) (UniProt P17751)
[25] = target: Chchd3_IPI:IPI00133562.1 (mouse) (UniProt Q9CRB9)
[26] = target: Oxa1l_IPI:IPI00308001.1 (mouse) (UniProt Q8BGA9)
[27] = target: Gm561_IPI:IPI00344567.1 (mouse)
[28] = target: Atp1a1_IPI:IPI00311682.5 (mouse) (UniProt Q8VDN2)
[29] = target: Ywhaz_IPI:IPI00116498.1 (mouse) (UniProt P63101)
Chain of Ywhaz_IPI:IPI00116498.1 (mouse) (P63101 whole entry): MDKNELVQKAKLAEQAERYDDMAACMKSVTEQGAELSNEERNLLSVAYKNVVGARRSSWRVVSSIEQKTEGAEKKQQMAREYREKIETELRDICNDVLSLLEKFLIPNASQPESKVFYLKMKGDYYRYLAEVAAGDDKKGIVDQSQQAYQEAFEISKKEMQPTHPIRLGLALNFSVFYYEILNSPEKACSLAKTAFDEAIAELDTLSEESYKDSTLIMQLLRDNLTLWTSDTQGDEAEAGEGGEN

[30] = target: Dsg1c_IPI:IPI00331259.3 (mouse) (UniProt Q7TSF0)
[31] = target: Nsf_IPI:IPI00656325.2 (mouse) (UniProt P46460)
Chain of Nsf_IPI:IPI00656325.2 (mouse) (P46460 whole entry): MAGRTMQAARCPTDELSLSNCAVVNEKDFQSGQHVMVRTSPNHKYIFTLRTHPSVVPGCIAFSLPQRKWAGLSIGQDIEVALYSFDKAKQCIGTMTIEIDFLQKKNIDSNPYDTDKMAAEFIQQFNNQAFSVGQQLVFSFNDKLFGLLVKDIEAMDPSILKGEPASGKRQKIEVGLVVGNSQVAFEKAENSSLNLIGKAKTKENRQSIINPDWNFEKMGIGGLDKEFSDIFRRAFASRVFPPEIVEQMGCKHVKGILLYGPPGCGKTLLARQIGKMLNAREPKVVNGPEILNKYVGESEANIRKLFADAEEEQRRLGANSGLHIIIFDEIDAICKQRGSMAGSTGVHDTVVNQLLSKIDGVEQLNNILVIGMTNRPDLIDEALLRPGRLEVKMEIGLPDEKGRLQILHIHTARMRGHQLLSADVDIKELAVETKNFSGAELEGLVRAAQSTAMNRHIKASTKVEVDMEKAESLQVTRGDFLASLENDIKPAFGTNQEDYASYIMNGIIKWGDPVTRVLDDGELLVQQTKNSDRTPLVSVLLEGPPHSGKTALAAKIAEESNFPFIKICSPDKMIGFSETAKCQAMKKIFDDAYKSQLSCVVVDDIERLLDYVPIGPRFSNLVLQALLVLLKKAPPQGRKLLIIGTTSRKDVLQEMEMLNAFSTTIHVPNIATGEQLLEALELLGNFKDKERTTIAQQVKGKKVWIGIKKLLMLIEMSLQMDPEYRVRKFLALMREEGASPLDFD

[32] = target: Cyc1_IPI:IPI00132728.2 (mouse) (UniProt Q9D0M3)
[33] = target: Cisd1_IPI:IPI00128346.1 (mouse) (UniProt Q91WS0)
Chain of Cisd1_IPI:IPI00128346.1 (mouse) (Q91WS0 whole entry): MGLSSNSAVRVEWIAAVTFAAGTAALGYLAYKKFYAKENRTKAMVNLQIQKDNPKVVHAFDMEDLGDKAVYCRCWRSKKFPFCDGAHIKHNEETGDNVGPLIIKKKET

Chain of Nubpl_IPI:IPI00317709.1 (mouse) (Q9CWD8 39-319 limits assumed): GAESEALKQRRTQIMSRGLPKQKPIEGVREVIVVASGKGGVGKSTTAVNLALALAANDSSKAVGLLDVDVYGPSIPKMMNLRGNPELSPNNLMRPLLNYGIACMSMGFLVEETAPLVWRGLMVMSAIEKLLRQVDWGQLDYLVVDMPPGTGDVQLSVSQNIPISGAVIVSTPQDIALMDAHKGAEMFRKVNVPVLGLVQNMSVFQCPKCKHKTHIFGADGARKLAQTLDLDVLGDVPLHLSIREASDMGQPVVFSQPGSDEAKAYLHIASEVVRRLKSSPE
Chain of Nup210l_IPI:IPI00356451.5 (mouse) (Q9D2F7 33-1881 limits assumed): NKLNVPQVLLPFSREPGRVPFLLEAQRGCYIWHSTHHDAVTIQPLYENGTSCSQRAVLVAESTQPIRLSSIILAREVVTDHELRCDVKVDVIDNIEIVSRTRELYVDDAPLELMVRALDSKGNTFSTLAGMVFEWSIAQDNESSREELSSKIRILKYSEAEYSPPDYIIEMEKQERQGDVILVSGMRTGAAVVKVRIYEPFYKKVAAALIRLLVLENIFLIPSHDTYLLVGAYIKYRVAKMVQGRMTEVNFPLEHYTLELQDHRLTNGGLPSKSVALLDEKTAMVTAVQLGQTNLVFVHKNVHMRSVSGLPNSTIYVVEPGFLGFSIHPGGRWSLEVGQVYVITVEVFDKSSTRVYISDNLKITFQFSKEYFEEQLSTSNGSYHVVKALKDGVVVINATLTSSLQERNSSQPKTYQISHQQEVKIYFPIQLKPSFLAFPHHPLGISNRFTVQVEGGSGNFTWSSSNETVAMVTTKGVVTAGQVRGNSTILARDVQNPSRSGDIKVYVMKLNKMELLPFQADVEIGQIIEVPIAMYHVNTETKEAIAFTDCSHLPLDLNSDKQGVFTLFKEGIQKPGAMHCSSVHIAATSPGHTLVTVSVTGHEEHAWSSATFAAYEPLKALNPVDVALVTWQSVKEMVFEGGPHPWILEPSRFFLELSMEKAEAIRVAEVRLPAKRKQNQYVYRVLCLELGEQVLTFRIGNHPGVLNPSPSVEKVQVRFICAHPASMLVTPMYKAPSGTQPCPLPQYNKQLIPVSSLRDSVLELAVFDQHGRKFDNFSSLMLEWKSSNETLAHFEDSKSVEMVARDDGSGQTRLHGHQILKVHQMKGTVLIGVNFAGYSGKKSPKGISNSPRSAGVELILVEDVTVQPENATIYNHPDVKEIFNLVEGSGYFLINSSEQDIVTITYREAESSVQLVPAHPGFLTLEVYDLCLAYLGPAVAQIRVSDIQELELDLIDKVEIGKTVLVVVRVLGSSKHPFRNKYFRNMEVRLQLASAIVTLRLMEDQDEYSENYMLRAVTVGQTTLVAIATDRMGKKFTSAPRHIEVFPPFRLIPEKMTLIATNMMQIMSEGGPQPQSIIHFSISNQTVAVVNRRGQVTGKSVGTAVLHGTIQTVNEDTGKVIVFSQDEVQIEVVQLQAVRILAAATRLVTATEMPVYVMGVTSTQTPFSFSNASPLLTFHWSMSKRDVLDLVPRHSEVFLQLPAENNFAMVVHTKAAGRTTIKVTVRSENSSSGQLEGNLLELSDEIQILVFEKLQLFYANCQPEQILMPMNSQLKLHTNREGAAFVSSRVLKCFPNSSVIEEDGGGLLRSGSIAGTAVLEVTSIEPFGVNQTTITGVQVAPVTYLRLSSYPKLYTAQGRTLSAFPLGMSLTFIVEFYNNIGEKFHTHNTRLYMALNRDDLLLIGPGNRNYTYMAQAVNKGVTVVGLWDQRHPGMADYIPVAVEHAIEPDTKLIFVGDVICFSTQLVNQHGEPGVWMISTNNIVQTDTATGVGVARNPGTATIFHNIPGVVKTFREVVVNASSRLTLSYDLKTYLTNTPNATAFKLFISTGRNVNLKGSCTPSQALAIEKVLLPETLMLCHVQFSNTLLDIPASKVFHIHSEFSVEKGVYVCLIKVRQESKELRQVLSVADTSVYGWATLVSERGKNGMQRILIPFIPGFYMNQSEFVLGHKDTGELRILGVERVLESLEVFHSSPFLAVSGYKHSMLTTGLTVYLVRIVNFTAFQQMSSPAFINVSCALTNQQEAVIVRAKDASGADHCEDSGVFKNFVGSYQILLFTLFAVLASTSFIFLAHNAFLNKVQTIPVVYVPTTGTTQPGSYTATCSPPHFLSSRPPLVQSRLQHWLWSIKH
Chain of GST-Httex1-97Q (P08515 1-218, tags or fused parts left off): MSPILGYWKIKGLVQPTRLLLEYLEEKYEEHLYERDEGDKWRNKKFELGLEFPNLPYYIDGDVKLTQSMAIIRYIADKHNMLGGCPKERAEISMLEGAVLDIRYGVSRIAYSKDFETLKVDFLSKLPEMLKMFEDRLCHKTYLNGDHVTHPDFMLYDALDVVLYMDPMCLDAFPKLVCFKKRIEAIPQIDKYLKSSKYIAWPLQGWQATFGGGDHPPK

GST-Httex1-97Q (from UniProt P08515 1-218; P42858 1-88)
No. of total peptides [1]: 1 peptides | No. of unique peptides [1]: 1 peptides | No. of total peptides [2]: 1 peptides | No. of unique peptides [2]: 1 peptides | No. of total peptides [3]: 1 peptides | No. of unique peptides [3]: 1 peptides | No. of total peptides [4]: 1 peptides | No. of unique peptides [4]: 1 peptides | No. of total peptides [5]: 3 peptides | No. of unique peptides [5]: 3 peptides | No. of total peptides [6]: 3 peptides | No. of unique peptides [6]: 3 peptides | No. of total peptides [7]: 4 peptides | No. of unique peptides [7]: 4 peptides | No. of total peptides [8]: 1 peptides | No. of unique peptides [8]: 1 peptides | No. of total peptides [9]: 1 peptides | No. of unique peptides [9]: 1 peptides | No. of total peptides [10]: 1 peptides | No. of unique peptides [10]: 1 peptides | No. of total peptides [11]: 3 peptides | No. of unique peptides [11]: 3 peptides | No. of total peptides [12]: 1 peptides | No. of unique peptides [12]: 1 peptides | No. of total peptides [13]: 1 peptides | No. of unique peptides [13]: 1 peptides | No. of total peptides [14]: 1 peptides | No. of unique peptides [14]: 1 peptides | No. of total peptides [15]: 1 peptides | No. of unique peptides [15]: 1 peptides | No. of total peptides [16]: 1 peptides | No. of unique peptides [16]: 1 peptides | No. of total peptides [17]: 1 peptides | No. of unique peptides [17]: 1 peptides | No. of total peptides [18]: 2 peptides | No. of unique peptides [18]: 2 peptides | No. of total peptides [19]: 2 peptides | No. of unique peptides [19]: 2 peptides | No. of total peptides [20]: 1 peptides | No. of unique peptides [20]: 1 peptides | No. of total peptides [21]: 1 peptides | No. of unique peptides [21]: 1 peptides | No. of total peptides [22]: 1 peptides | No. of unique peptides [22]: 1 peptides | No. of total peptides [23]: 1 peptides | No. of unique peptides [23]: 1 peptides | No. of total peptides [24]: 1 peptides | No. of unique peptides [24]: 1 peptides | No. of total peptides [25]: 2 peptides | No. of unique peptides [25]: 2 peptides | No. of total peptides [26]: 1 peptides | No. of unique peptides [26]: 1 peptides | No. of total peptides [27]: 2 peptides | No. of unique peptides [27]: 2 peptides | No. of total peptides [28]: 1 peptides | No. of unique peptides [28]: 1 peptides | No. of total peptides [29]: 1 peptides | No. of unique peptides [29]: 1 peptides | No. of total peptides [30]: 1 peptides | No. of unique peptides [30]: 1 peptides | No. of total peptides [31]: 1 peptides | No. of unique peptides [31]: 1 peptides | No. of total peptides [32]: 1 peptides | No. of unique peptides [32]: 1 peptides | No. of total peptides [33]: 3 peptides | No. of unique peptides [33]: 2 peptides
